Assay results published in article PMC11574045 (2024).

Target: GLUP (macrocyclic version of glup) (disulfide-cyclization and C-terminal amidation (results); head-to-side-chain cross-linking with 1,3-dibromomethylbenzene (methods))

B1: TEAD4, purified recombinant protein (natural protein)
chain: PAPPWQGRSVASSKLWMLEFSAFLEQQQDPDTYNKHLFVHIGQSSPSYSDPYLEAVDIRQIYDKFPEKKGGLKDLFERGPSNAFFLVKFWADLNTNIEDEGSSFYGVSSQYESPENMIITCSTKVCSFGKQVVEKVETEYARYENGHYSYRIHRSPLCEYMINFIHKLKHLPEKYMMNSVLENFTILQVVTNRDTQETLLCIAYVFEVSASEHGAQHHIYRLVKE
Kd: 4.55 µM
